# Reference: patent publication US20240101959A1, “USE OF IL-2R-BETA-GAMMA AGONIST PEPTIDES IN CELL MANUFACTURING” (MEDIKINE, INC., priority 2022, published 2024)
# Positions of bridges follow the written chain, without caps; N, C: chain ends. No end group written: not given here.
# Molecular target: T1, hu-IL-2Rβ subunit (human, UniProt P14784 27-240, limits assumed)
# T1 construct: also called human interleukin-2 receptor subunit β; CD122
# T1 sequence (looked up): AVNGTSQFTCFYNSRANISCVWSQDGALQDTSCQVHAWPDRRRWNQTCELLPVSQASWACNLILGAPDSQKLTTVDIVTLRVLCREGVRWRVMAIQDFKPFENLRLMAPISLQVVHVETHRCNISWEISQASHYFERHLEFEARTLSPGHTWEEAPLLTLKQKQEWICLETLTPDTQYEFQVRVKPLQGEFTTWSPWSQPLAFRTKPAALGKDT
# Assay: phage ELISA competition assay
row,Binder,IC50
1,WLPCWRAQLGQLCDLD [SEQ ID NO 385],< 100 µM
2,LFPCWLAQLGELCDLE [SEQ ID NO 386],< 100 µM
3,MYPCWIAHLGELCDLD [SEQ ID NO 389],< 100 µM
4,WYPCSIASLGELCDLE [SEQ ID NO 390],< 100 µM
5,WLPCYMAQLGDLCDLE [SEQ ID NO 391],< 100 µM
6,WYPCWLASLGEVCDLE [SEQ ID NO 393],< 100 µM
7,WWPCSIARLGQLCDLD [SEQ ID NO 394],< 100 µM
8,DSDWWPCWMAQLGELCDLEDAR [SEQ ID NO 101],< 100 µM
9,WYPCWLAQLGELCDAE [SEQ ID NO 396],< 100 µM
10,WKPCWMALLGELCDLE [SEQ ID NO 397],< 100 µM
11,RYPCWRAKLGELCDLD [SEQ ID NO 398],< 100 µM
12,EEQSRGFLPCWMALLGELCDLD [SEQ ID NO 399],< 100 µM
13,LGSKRQWYPCWVAHLGELCDLE [SEQ ID NO 400],< 100 µM
14,ESEGRGWYPCWNALLGELCDLE (disulfide 10-19 (inferred)) [SEQ ID NO 401],< 100 µM
15,RWTQAQWYPCWLAQLGELCDLE [SEQ ID NO 402],< 100 µM
16,LHAGRWNPCWLAQLGELCDLE [SEQ ID NO 403],< 100 µM
17,LSSKGWYPCWKARLGDLCDLE (disulfide 9-18 (inferred)) [SEQ ID NO 404],< 100 µM
18,GERWKPCWIAQLGELCDLDFNW [SEQ ID NO 102],< 100 µM
19,DMFTHRWYPCSMAKLGELCDLE [SEQ ID NO 405],< 100 µM
20,MTDRAFWNPCWVARLGELCDLD [SEQ ID NO 406],< 100 µM
21,NVTYTQWFPCWLARLGELCDLV [SEQ ID NO 407],< 100 µM
22,VRTRIWYPCWSAQLGELCDLD [SEQ ID NO 408],< 100 µM
23,AMARRYLPCWIAKLGELCELD (disulfide 9-18 (inferred)) [SEQ ID NO 409],< 100 µM
24,ARGEYRWFPCWMARLGELCDLE [SEQ ID NO 410],< 100 µM
25,YLERSRWYPCFIAQLGELCDLE [SEQ ID NO 411],< 100 µM
26,FRVSRDWFPCWMAQLGEVCDLE (disulfide 10-19 (inferred)) [SEQ ID NO 412],< 100 µM
27,IERAWEWRPCWLASVGELCDLE [SEQ ID NO 413],< 100 µM
